Results reported in PMC3936742 (Nucleic Acids Research, 2013).

Biological target: T1, Flag-MnmC(o), C-terminal oxidoreductase domain of MnmC (amino acids 250-668) (E. coli, UniProt P77182 250-668)
T1 sequence (looked up): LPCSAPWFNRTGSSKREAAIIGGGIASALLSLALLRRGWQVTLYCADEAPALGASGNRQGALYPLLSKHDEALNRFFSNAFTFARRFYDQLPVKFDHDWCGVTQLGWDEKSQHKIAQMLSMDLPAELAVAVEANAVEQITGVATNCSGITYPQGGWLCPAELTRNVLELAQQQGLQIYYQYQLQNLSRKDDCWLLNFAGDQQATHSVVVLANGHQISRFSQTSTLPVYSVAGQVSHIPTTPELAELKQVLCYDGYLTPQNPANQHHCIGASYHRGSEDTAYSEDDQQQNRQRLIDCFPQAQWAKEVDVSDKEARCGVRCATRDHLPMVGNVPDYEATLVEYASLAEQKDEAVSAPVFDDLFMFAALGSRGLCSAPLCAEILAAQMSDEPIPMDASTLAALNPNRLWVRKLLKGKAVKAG
Experiment: SPR; His-MnmC(m) captured (~600 RU) on anti-His monoclonal antibody coupled to a CM-5 chip; Flag-MnmC(o) at various concentrations in TBS buffer, 30 µl/min, 25°C; apparent equilibrium constant
Conditions: both partners purified

B1: His-MnmC(m), MnmC(m) domain fused at its N-terminal end to a 6x-His-epitope (domain or fragment, E. coli, UniProt P77182 1-250, looked up)
chain: MKHYSIQPANLEFNAEGTPVSRDFDDVYFSNDNGLEETRYVFLGGNQLEVRFPEHPHPLFVVAESGFGTGLNFLTLWQAFDQFREAHPQAQLQRLHFISFEKFPLTRADLALAHQHWPELAPWAEQLQAQWPMPLPGCHRLLLDEGRVTLDLWFGDINELTSQLDDSLNQKVDAWFLDGFAPAKNPDMWTQNLFNAMARLARPGGTLATFTSAGFVRRGLQDAGFTMQKRKGFGRKREMLCGVMEQTLPL
A Kd of 87 ± 15 nM was found for B1 in this work.
